Patent US20250147035A1, “METHODS FOR DETECTION OF POST-TRANSLATIONAL MODIFICATIONS” (Quantum-Si Incorporated, priority 2023, published 2025)
Where two headings read alike, the source gives them in different places. Primed or numbered codes have the meaning given here. Where no end group is shown, it is not given here. [ ]: non-standard residue; d: D form. pT = C[C@@H](OP(=O)(O)O)[C@H](N)C(=O)O; pS = N[C@@H](COP(=O)(O)O)C(=O)O; Biotin′ = not defined here

What was measured:
p…-Biotin [1] = biological target: T1, p…-Biotin; assay: Octet (BLI), fixed reagent concentration
T1 sequence (peptide, phosphothreonine at 1; C-terminal Biotin): TAKLDEESILKQ

…-Biotin = biological target: T2, …-Biotin; assay: Octet (BLI), fixed reagent concentration
T2 sequence (peptide, C-terminal Biotin): SAKLDEESILKQ

EFLN-pT-RFYK = assay: Octet (BLI), sensors coated with peptide
[2] = biological target: pT-…; assay: Octet (BLI), sensors coated with peptide
pSAKLDEESILKQ-Biotin [3] = assay: Octet binding assay of PTM-specific affinity reagent candidates, pSA peptide; settings: fixed concentration of reagent
Excerpt: (§1) This Example characterizes an exemplary phosphorylated threonine recognizer for use in methods of the disclosure.

SAKLDEESILKQ-Biotin = assay: Octet binding assay of PTM-specific affinity reagent candidates, SA control peptide; design: unit not given here; settings: fixed concentration of reagent
Excerpt: as §1

[4] = biological target: p…; assay: Octet (BLI), sensors coated with peptide
QRFpYLAYPDDD-FITC = assay: bulk fluorescence polarization, 0.5 µM PM49, FITC-labeled peptide
p…-Biotin [5] = biological target: T3, p…-Biotin; assay: Octet (BLI), fixed reagent concentration; remark: listed apart in the source
T3 sequence (peptide, phosphoserine at 1; C-terminal Biotin): SAKLDEESILKQ

p[…]-Biotin [6] = assay: Octet binding assay of PTM-specific affinity reagent candidates, pTQR peptide; settings: fixed concentration of reagent
Description: This Example characterizes an exemplary phosphorylated threonine recognizer for use in methods of the disclosure. Octet binding assays at a fixed concentration of PTM-specific affinity reagent candidates were evaluated for binding with phospho-threonine, phospho-serine containing peptides (p[…]-Biotin; p[…]-Biotin; p[…]-Biotin), and control peptides without modifications ([…]-Biotin; […]-Biotin).

p[…]-Biotin [7] = assay: Octet binding assay of PTM-specific affinity reagent candidates, pTA peptide; settings: fixed concentration of reagent
Excerpt: as §1

pSAKLDEESILKQ-Biotin [8] = biological target: T4, pSAKLDEESILKQ-Biotin; assay: Octet (BLI), fixed reagent concentration;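 note: octet binding of candidate PTM-specific affinity reagents, each at one fixed concentration, to biotinylated phospho-Thr or phospho-Ser peptides, with unmodified biotinylated peptides serving as controls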
T4 peptide: [pS]AKLDEESILKQ-{Biotin′}
Description: (§3) Octet binding assays at a fixed concentration of PTM-specific affinity reagent candidates were evaluated for binding with phospho-threonine, phospho-serine containing peptides (p[sequence]-Biotin; p[sequence]-Biotin; p[sequence]-Biotin), and control peptides without modifications ([sequence]-Biotin; [sequence]-Biotin).

TAKLDEESILKQ-Biotin = biological target: T5, TAKLDEESILKQ-Biotin; assay: Octet (BLI), fixed reagent concentration;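 note: octet binding of candidate PTM-specific affinity reagents, each at one fixed concentration, to biotinylated phospho-Thr or phospho-Ser peptides, with unmodified biotinylated peptides serving as controls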
T5 peptide: TAKLDEESILKQ-{Biotin′}
Description: as §3

pTAKLDEESILKQ-Biotin = biological target: T6, pTAKLDEESILKQ-Biotin; assay: Octet (BLI), fixed reagent concentration;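 note: octet binding of candidate PTM-specific affinity reagents, each at one fixed concentration, to biotinylated phospho-Thr or phospho-Ser peptides, with unmodified biotinylated peptides serving as controls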
T6 peptide: [pT]AKLDEESILKQ-{Biotin′}
Description: as §3

p…-Biotin [9] = assay: Octet (BLI), fixed reagent concentration; remark: listed apart in the source
LAQ-pY-LAYPDDDK = assay: On-chip fluorescence signature of PTM-specific affinity reagent binding before sequencing (Example 1); settings: polypeptide with PTM, collected for 30 minutes
Description: (§2) A control polypeptide ([…]) and a model polypeptide comprising a phospho-tyrosine (LAQ-pY-[…]) were tested in this Example. Each polypeptide was first immobilized onto independent surfaces of a chip. A post-translational modification-specific (PTM-specific) affinity reagent that binds to phospho-tyrosine (PS33 (SEQ ID NO: 35)) and comprised a fluorescent label was then added to the chip and allowed to contact the polypeptides. […] The chip was then washed to remove the PTM-specific affinity reagent. A protein sequencing analysis of the polypeptides was then performed. A mixture of labeled terminal amino acid recognition molecules was added to the chip and allowed to incubate for 15 minutes. After 15 minutes, a mixture of cleaving reagents (a mixture of aminopeptidases) was added to the chip. During these steps, a series of signal pulses indicative of association of the one or more terminal amino acid recognition molecules with successive amino acids exposed at a terminus of each polypeptide were collected while each polypeptide was being degraded.

LAQYLAYPDDDK = assay: On-chip fluorescence signature of PTM-specific affinity reagent binding before sequencing (Example 1), control polypeptide; settings: polypeptide without PTM, collected for 30 minutes
Description: as §2

Work on “PM12 (Mycobacterium tuberculosis/FhaA) (from UniProt P71590 430-527)” yielded an Octet binding assay response (p…-Biotin [1]) of 7.1, an Octet binding assay response (…-Biotin) of 0.6 and an Octet shift (EFLN-pT-RFYK) of 6.8. The Octet shift [2] was 4.4.

In the case of “PM06: Human/14-3-3 protein zeta/delta, SEQ ID NO: 6”, the “Octet binding assay response, pSA” value (pSAKLDEESILKQ-Biotin [3]) is reported as 0.1 and the “Octet binding assay response, SA” value (SAKLDEESILKQ-Biotin; SA = SAKLDEESILKQ-Biotin (control)) is reported as 0.1.

“PM49 (ABCAM® Biotin Anti-Phosphotyrosine antibody [EPR16871])” showed an Octet shift [4] of 10.2 and a fold tighter binding affinity against an N-terminal phospho-tyrosine (QRFpYLAYPDDD-FITC) of 2 fold.

With “PM06 (Human/14-3-3 protein zeta/delta) (from UniProt P63103 1-245)” the Octet binding assay response (p…-Biotin [5]) was 0.1 and the Octet binding assay response (…-Biotin) was 0.1.

B1: PM13 (Saccharomyces cerevisiae/FHA1) (other)
chain: MENITQPTQQSTQATQRFLIEKFSQEQIGENIVCRVICTTGQIPIRDLSADISQVLKEKRSIKKVWTFGRNPACDYHLGNISRLSNKHFQILLGEDGNLLLNDISTNGTWLNGQKVEKNSNQLLSQGDEITVGVGVESDILSLVIFINDKFKQCLEQNKVDRIRSNLKNTSKIASPGLTSSTASSMVANKTGIFKDFSIIDEVVGQGAFATVKKAIERTTGKTFAVKIISKRKVIGNMDGVTRELEVLQKLNHPRIVRLKGFYEDTESYYMVMEFVSGG
In the case of B1, the “Octet binding assay response, SA” value (SAKLDEESILKQ-Biotin; SA = […]-Biotin (control)) is reported as 0.2, the “Octet binding assay response, pTQR” value (p[…]-Biotin [6]) is reported as 3.2 and the “Octet binding assay response, pTA” value (p[…]-Biotin [7]) is reported as 1.8. For the same molecule, the Octet binding assay response (p…-Biotin [1]; pTA phosphothreonine peptide) was 1.8, the Octet binding assay response (p…-Biotin [1]; pTQR phosphothreonine peptide) was 3.2 and the Octet binding assay response (…-Biotin) was 0.2. For the same molecule, the “Octet binding assay response” value (pSAKLDEESILKQ-Biotin [8]) was 0.3 and the “Octet binding assay response” value (TAKLDEESILKQ-Biotin) was 0.3.

B2: PM02 (Human/14-3-3 protein theta) (other)
chain: MEKTELIQKAKLAEQAERYDDMATCMKAVTEQGAELSNEERNLLSVAYKNVVGGRRSAWRVISSIEQKTDTSDKKLQLIKDYREKVESELRSICTTVLELLDKYLIANATNPESKVFYLKMKGDYFRYLAEVACGDDRKQTIDNSQGAYQEAFDISKKEMQPTHPIRLGLALNFSVFYYEILNNPELACTLAKTAFDEAIAELDTLNEDSYKDSTLIMQLLRDNLTLWTSDSAGEECDAAEGAEN
With B2 the Octet binding assay response (…-Biotin) was 0.3, the “Octet binding assay response” value (pSAKLDEESILKQ-Biotin [8]) was 0.3 and the “Octet binding assay response” value (pTAKLDEESILKQ-Biotin) was 0.3. The “Octet binding assay response” value (TAKLDEESILKQ-Biotin) was 0.3 and the Octet binding assay response (p…-Biotin [9]) was 0.5.

B3: PS33: SH domanin Fyn Triple mutant, SEQ ID NO: 35; PTM-specific affinity reagent that specifically binds to phospho-tyrosine (protein)
chain: MGAMDSIQAEEWYFGKLGRKDAERQLLSFGNPRGTFLIRESETVKGAYALSIRDWDDMKGDHVKHYLIRKLDNGGYYITTRAQFETLQQLVQHYSERAAGLSSRLVVPSHK
B3 was tested, and the “fluorescence signature representative of binding interaction(s)” value (LAQ-pY-LAYPDDDK) was “strong fluorescence signature” and the “fluorescence signature representative of binding interaction(s)” value (LAQYLAYPDDDK) was “no fluorescence signature”.

B4: PM18 (Human/MINT) (other)
chain: MVDMVQLLKKYPIVWQGLLALKNDTAAVQLHFVSGNNVLAHRSLPLSEGGPPLRIAQRMRLEATQLEGVARRMTVETDYCLLLALPCGRDQEDVVSQTESLKAAFITYLQAKQAAGIINVPNPGSNQPAYVLQIFPPCEFSESHLSRLAPDLLASISNISPHLMIVIASV
B4 was tested, and the “Octet binding assay response, SA” value (SAKLDEESILKQ-Biotin; SA = […]-Biotin (control)) was 0.9, the “Octet binding assay response, pTQR” value (p[…]-Biotin [6]) was 1.6 and the “Octet binding assay response, pTA” value (p[…]-Biotin [7]) was 0.7. It also gave an Octet binding assay response (p…-Biotin [5]) of 0.6, an Octet binding assay response (p…-Biotin [1]; pTA phosphothreonine peptide) of 0.7 and an Octet binding assay response (p…-Biotin [1]; pTQR phosphothreonine peptide) of 1.6. For the same molecule, the Octet binding assay response (…-Biotin) was 0.9 and the “Octet binding assay response” value (TAKLDEESILKQ-Biotin) was 0.6.

B5: PM03 (Human/14-3-3 protein eta) (other)
chain: MGDREQLLQRARLAEQAERYDDMASAMKAVTELNEPLSNEDRNLLSVAYKNVVGARRSSWRVISSIEQKTMADGNEKKLEKVKAYREKIEKELETVCNDVLSLLDKFLIKNCNDFQYESKVFYLKMKGDYYRYLAEVASGEKKNSVVEASEAAYKEAFEISKEQMQPTHPIRLGLALNFSVFYYEIQNAPEQACLLAKQAFDDAIAELDTLNEDSYKDSTLIMQLLRDNLTLWTSDQQDEEAGEGN
With B5 the Octet binding assay response (…-Biotin) was 0.3, the “Octet binding assay response” value (pSAKLDEESILKQ-Biotin [8]) was 0.2 and the “Octet binding assay response” value (pTAKLDEESILKQ-Biotin) was 0.2. The “Octet binding assay response” value (TAKLDEESILKQ-Biotin) was 0.2 and the Octet binding assay response (p…-Biotin [9]) was 0.4.

B6: PM05 (Human/14-3-3 protein beta/alpha) (other)
chain: MTMDKSELVQKAKLAEQAERYDDMAAAMKAVTEQGHELSNEERNLLSVAYKNVVGARRSSWRVISSIEQKTERNEKKQQMGKEYREKIEAELQDICNDVLELLDKYLIPNATQPESKVFYLKMKGDYFRYLSEVASGDNKQTTVSNSQQAYQEAFEISKKEMQPTHPIRLGLALNFSVFYYEILNSPEKACSLAKTAFDEAIAELDTLNEESYKDSTLIMQLLRDNLTLWTSENQGDEGDAGEGEN
In the case of B6, the Octet binding assay response (…-Biotin) is reported as 0.2, the “Octet binding assay response” value (pSAKLDEESILKQ-Biotin [8]) is reported as 0.2 and the “Octet binding assay response” value (pTAKLDEESILKQ-Biotin) is reported as 0.2. The “Octet binding assay response” value (TAKLDEESILKQ-Biotin) was 0.2 and the Octet binding assay response (p…-Biotin [9]) was 0.2.
